# Laboratory results published in paper PMC5302886, “Structure and function of the mycobacterial transcription initiation complex with the essential regulator RbpA” (eLife, 2017).
# B1: M. smegmatis σ^A (natural protein)
# chain: MAATKASPATEEPVKRTATKTPAKKAPAKRAAKSAAAKAGGKAPAKKAPAKRAAKGTAAKPEDGVTDDLEVTDDLEAEPGEDLDVEDTDLELDDLDSDDDTAVEDEEEEADAATPAVATAKAADDDIDEPSEKDKASGDFVWDEEESEALRQARKDAELTASADSVRAYLKQIGKVALLNAEEEVELAKRIEAGLYATQKLAELAEKGEKLPVQQRRDMQWICRDGDRAKNHLLEANLRLVVSLAKRYTGRGMAFLDLIQEGNLGLIRAVEKFDYTKGYKFSTYATWWIRQAITRAMADQARTIRIPVHMVEVINKLGRIQRELLQDLGREPTPEELAKEMDITPEKVLEIQQYAREPISLDQTIGDEGDSQLGDFIEDSEAVVAVDAVSFTLLQDQLQSVLETLSEREAGVVRLRFGLTDGQPRTLDEIGQVYGVTRERIRQIESKTMSKLRHPSRSQVLRDYLD
# notes: primary (group 1) sigma factor σ^A of Mycobacterium smegmatis; domains σ^A2, σ^A3, σ^A4 named in the text; Plasmid Msm pET-SUMO σ^A received from C; Stallings; also called Msm σ^A; SigA
# B2: M. smegmatis RbpA (natural protein)
# chain: MADRVLRGSRLGAVSYETDRNHDLAPRQVARYRTDNGEEFDVPFADDAEIPGTWLCRNGLEGTLIEGDVPEPKKVKPPRTHWDMLLERRSVEELEELLKERLDLIKAKRRGTGS
# notes: RbpA of Mycobacterium smegmatis mc2155 (MSmeg_3858), cloned from genomic DNA into pet21C; elements NTT (25 residues, disordered in the crystal), CD, BL (residues 70-79), SID; 114 residues by the printed truncations (28-114aa, 72-114aa); the complex was held on the Ni2+ column by the His10-SUMO tag of σ^A and came in the flow-through after that tag was cleaved; The NTT was in the crystallised …
# Biological target: T1, M. smegmatis RNA polymerase β’ subunit (M. smegmatis, UniProt A0QS66 1-1317)
# T1 construct: RNA polymerase β’ subunit of Mycobacterium smegmatis mc2155, native chromosomal copy of rpoC with a C-terminal PreScission site and His10 tag; In the crystal β’ stood as part of the whole σ^A-holoenzyme, not as an isolated subunit; also called RNAP β’-ppx-His10; rpoC product
# Assay: crystal structure; Msm RbpA/σ^A-holo mixed 1:1 with T10 upstream fork promoter DNA (RbpA/TIC, 446 kDa); hanging drop vapor diffusion at 22°C, 0.1 M Bis-Tris pH 6.0, 0.2 M LiSO4, 16% PEG 3350, 2.5% ethylene glycol; 2.76 Å
# Settings: both partners purified
row,Binder,binding result
1,B1,binds
2,B2,binds
